Test results: patent US6599718B1, “Growth hormone secretagogue related receptors and nucleic acids” (priority 1998, dated 2003)
Each block holds one molecule with its values, some of them ahead of it. Ends that are not written are not given here.

Columns and labels:
[1] = target: human growth hormone secretagogue related receptor (GHSR-R) (human) (UniProt Q9HB89); assay: cell-based or functional assay
[2] = system: other G-protein coupled receptors; assay: Aequorin assay, cells transfected with other G-protein coupled receptors in the same vector; type: cell-based; conditions: other GPCRs cloned into the same vector
GHSR-R = target: T1, GHSR-R (Homo sapiens, UniProt Q9HB89); assay: β-lactamase assay in CHO-NFAT-bla cells stably expressing GHSR-R; type: cell-based; conditions: triplicates, read-out: EC50 of NMU for GHSR-R
T1 construct: expressed in transfected cells
T1 sequence (Q9HB89 24-426 limits assumed): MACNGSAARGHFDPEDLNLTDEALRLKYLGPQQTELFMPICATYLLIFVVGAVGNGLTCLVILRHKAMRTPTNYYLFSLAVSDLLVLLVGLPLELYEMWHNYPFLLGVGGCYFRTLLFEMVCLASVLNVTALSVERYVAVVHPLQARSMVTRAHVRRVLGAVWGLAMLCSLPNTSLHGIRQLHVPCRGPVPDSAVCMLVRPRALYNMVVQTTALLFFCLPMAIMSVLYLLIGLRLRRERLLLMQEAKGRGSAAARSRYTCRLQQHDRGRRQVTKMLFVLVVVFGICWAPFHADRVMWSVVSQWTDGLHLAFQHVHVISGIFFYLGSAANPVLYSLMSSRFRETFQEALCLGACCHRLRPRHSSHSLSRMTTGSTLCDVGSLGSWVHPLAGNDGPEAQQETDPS
Protocol: β-lactamase assays were carried out as described previously; Zlokarnik et al., 1998, Science 279:84-88. CH.3xNFAT-bla cells (Aurora Biosciences, San Diego, Calif., USA) stably expressing GHSR-R were maintained at 37° C./5% CO2 in DMEM+10% fetal bovine serum (GIBCO-BRL, Gaithersburg, Md., USA), 1 mM sodium pyruvate, 1 mM non-essential amino acid, 55 μM 2-mecaptoethanol, 250 μg/ml zeocin, 5.0 μg/ml puromycin. Cells were seeded at 7,000 cells/well in 96-well clear bottom black-walled plates two days before assay.
The day the assay was performed, growth media was removed from the cells and replaced with 0.05 mL/well of phenol red-free Opti-MEM (GIBCO-BRL, Gaithersburg, Md., USA). Neuromedin U was diluted in Opti-MEM using 5-fold serial dilutions, and added into assay plates in triplicates at 0.05 ml/well. The plates were incubated at 37° C./5% CO2 for 4 hours. […]
Fluorescence was measured at emission wave length of 460 nM and 535 nM using an excitation wave length of 405 nM in a Tecan SpectraFluor Plus fluorescence microplate reader (Tecan Austria, Saltzburg, Austria). The ratio of fluorescence between 460 nM and 535 nM was calculated and plotted using the software GraphPad Prism Version 3.0 (GraphPad Software, Inc., San Diego, Calif., USA).

[3] = system: Male rats (Charles River Sprague Dawley); assay: Overnight food intake after ICV (lateral ventricle) injection in rats; type: in vivo, rat; conditions: 10 μg ICV, relative to aCSF vehicle, P<0.01, n=6
Protocol: Animals and Diet: Male rats (Charles River Sprague Dawley) weighing 250-350 g were maintained in a temperature and humidity controlled facility with a 12 hour light/dark cycle (4:00 AM lights on). Rats were fed standard rodent ground chow (Purina#7012). Fresh diet was provided daily. Both food and water were supplied ad libitum throughout both the pre- and post-surgery periods.
ICV cannulation: Rats under ketamine/xylazine anesthesia, were stereotaxically implanted in the lateral ventricle with a 26G guide cannula. The guide cannula (Plastics One Roanoke,Va.) was secured with three set screws and dental cement. A dummy internal cannula was placed into the guide cannula to maintain cannula patency. Rats were individually housed in Nalgene metabolism cages and allowed to recover a minimum of seven days before injection with test compounds.
Acclimation: Beginning the day after surgery, each rat was acclimated to the handling and injection procedure, as well as, the feeding regimen. […] Food intake was measured two hours later and the following morning. […]
Confirmation of cannula placement: Once the rats were fully recovered from surgery, guide cannula placement was confirmed by evaluating the food intake induced by the injection of 5 μg of hNPY (Peninsula Laboratories, Belmont, Calif.) after a one hour satiation period. Two hour post-injection food intake was recorded for each rat. […]

[4] = target: T2, human growth hormone secretagogue related receptor (GHSR-R) (human, UniProt Q9HB89 24-426); assay: cell-based or functional assay
T2 sequence: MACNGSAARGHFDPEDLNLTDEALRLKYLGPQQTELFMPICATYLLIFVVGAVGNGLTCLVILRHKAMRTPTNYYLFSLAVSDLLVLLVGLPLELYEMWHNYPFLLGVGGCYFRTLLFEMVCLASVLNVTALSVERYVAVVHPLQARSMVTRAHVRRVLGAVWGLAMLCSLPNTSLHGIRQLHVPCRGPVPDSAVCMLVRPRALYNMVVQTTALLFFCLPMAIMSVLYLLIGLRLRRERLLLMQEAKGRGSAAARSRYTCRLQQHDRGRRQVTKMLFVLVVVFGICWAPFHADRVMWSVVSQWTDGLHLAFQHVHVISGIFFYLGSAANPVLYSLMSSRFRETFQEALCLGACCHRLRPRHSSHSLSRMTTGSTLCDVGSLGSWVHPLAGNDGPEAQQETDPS

[5] = target: T2, human growth hormone secretagogue …; assay: radioligand competition on membranes of HEK293 cells stably expressing human GHSR-R (summary of Example 10)
Protocol: (§1) All procedures were conducted on ice. Cell pellets were homogenized in a tissue grinder with a PTFE pestle (25 strokes). Crude cell membranes were then isolated by centrifugation of the cell lysate at 13,000×g for 30 minutes. Membrane pellets were resuspended at a protein concentration of 2.8 mg/ml in 50 mM Tris-HCl, pH 7.4, 5 mM MgCl2.
(§2) After incubation for 1 hour at room temperature, binding reactions were filtered through GC/C filters (Whatman; presoaked for 1 hour in 1% polyethylenimine) on a 48-well cell harvester (Brandel), washed 3×3 ml with ice-cold 50 mM Tris-HCl, pH 7.4 buffer with 10 mM MgCl2. Radioactivity on the filters was quantitated by gamma counting.

[6] = target: T2, human growth hormone secretagogue …; assay: radioligand competition against 0.1 nM 125I-labeled rat NMU on membranes of HEK-293/aeq17 cells stably expressing human GHSR-R, filtration
Protocol: as §1, §2

Molecule: neuromedin U (NMU), species and length not stated (peptide)
- EC50, beta-lactamase reporter assay in CHO-NFAT-bla cells [1]: 0.075 nM
- EC50, beta-lactamase reporter assay in HEK293CRE-bla cells [1]: 3 nM

Molecule: neuromedin U (YKVNEYQGPVAPSGGFFLFRPRN; ends and bridges not checked; UniProt P12760 144-166, looked up) [NMU, neuropeptide neuromedin U; rat peptide (Phoenix Pharmaceuticals) in the food intake study]
- response to NMU in cells expressing other G-protein coupled receptors [2]: did not show any response
- EC50 (GHSR-R): ~0.075 nM
- suppression of food intake [3]: 59%

More lines, now with the values ahead:

- EC50, FLIPR intracellular Ca2+ assay, COS-7 cells transiently transfected with GHSR-R [1]: 45 nM
- EC50, aequorin bioluminescence assay (Ca2+ mobilization), HEK293aeq/17 cells stably expressing GHSR-R [1]: 2.1 nM
Molecule: porcine neuromedin U-8 (porcine NMU-8) (from UniProt P34964 158-165) (peptide)

- EC50, FLIPR intracellular Ca2+ assay, COS-7 cells transiently transfected with GHSR-R [4]: 55 nM
- EC50, aequorin bioluminescence assay (Ca2+ mobilization), HEK293aeq/17 cells stably expressing GHSR-R [4]: 14.1 nM
- IC50 [5]: 3 nM
- IC50 [6]: 3.3 nM
B1: rat neuromedin U-23 (rat NMU-23) (peptide, UniProt P12760 144-166, looked up)
peptide: YKVNEYQGPVAPSGGFFLFRPRN-NH2
notes: mature; also called unlabeled rat neuromedin U-25; Neuromedin U-25 (rat)
